From US20200157212A1 (Pfizer, published 2020)

Biological target: T1, Rat ROBO2 on cells (rat, UniProt Q7TPD3 22-1469 (mouse entry))
T1 construct: overexpressed on HEK293 cells in flow cytometry; endogenous on rat SVZ neuronal explants in the SVZa assay
T1 chain: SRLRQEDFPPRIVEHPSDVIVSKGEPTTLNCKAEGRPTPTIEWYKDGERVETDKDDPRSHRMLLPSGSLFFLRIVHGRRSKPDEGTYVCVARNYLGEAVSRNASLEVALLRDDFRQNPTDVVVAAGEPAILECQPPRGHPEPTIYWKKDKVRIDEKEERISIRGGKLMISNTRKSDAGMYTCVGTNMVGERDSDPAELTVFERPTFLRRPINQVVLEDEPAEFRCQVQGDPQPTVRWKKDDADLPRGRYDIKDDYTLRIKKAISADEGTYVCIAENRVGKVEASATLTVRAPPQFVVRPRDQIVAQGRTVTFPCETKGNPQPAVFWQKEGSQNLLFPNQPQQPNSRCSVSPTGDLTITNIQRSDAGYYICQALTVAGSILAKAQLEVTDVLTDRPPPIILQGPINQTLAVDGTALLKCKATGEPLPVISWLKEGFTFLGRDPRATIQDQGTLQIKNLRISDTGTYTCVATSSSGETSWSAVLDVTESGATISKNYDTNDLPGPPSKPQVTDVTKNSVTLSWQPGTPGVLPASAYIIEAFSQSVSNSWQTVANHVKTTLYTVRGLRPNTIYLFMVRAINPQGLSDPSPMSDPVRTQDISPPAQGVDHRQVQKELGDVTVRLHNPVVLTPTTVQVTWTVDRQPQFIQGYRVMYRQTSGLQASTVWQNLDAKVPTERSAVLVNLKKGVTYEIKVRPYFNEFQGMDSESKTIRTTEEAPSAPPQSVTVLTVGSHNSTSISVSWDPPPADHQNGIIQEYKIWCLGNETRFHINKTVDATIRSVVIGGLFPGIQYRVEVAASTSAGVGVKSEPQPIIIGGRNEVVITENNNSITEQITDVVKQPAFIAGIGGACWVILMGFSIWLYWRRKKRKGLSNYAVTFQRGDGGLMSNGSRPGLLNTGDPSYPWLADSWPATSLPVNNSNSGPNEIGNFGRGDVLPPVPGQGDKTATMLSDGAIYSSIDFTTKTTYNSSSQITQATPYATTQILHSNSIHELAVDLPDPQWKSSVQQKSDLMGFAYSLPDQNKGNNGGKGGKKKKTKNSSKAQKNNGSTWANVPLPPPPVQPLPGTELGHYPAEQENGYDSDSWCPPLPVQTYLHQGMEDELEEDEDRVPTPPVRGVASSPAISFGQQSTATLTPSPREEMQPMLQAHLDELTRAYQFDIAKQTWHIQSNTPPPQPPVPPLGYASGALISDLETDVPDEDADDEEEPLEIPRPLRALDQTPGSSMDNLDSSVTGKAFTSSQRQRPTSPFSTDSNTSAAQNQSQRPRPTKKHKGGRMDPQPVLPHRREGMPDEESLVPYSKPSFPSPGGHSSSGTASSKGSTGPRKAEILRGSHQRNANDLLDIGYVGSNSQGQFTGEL
Assay: flow cytometry, HEK293 cells
Description: Using flow cytometry, improvement in the binding EC₅₀ to human ROBO2 relative to the parental 93H2 was evaluated. Starting at 6.7 nM, 11-point, 3-fold dilution series were made for each antibody and used to stain HEK293 overexpressing human ROBO2 as described above for the ROBO2 fold selectivity (Example 2). […] In addition to measuring improved binding to human ROBO2, it was important to ensure that high affinity binding to both cynomolgus monkey ROBO2 and rat ROBO2 was maintained. Using HEK293 cells overexpressing either cynomolgus monkey ROBO2 or rat ROBO2, the relative dose-dependent binding of 93H2, Abcs25 and Abcs35 was evaluated as described above. High affinity binding to both cynomolgus monkey and rat ROBO2 was maintained in Abcs25 and Abcs35 (Table 4). […] Briefly, Abcs35 was immobilized to 300 resonance units (RU) on a CM5 chip. Association of ROBO2 Ig1-Ig2-His (ROBO2) was measured over 5 minutes and dissociation was followed for a period of 10 minutes.
The binding profile of Abcs35-J compared to Abcs35 was determined for human ROBO2, orthologs from cynomolgus monkey and rat, human ROBO1 and specificity for the RSK epitope from ROBO2 but not KSR from ROBO1. Binding was assessed by flow cytometry as described in Examples 2 (homolog specificity), Example 3 (ortholog reactivity) and Example 5 (RSK vs KSR epitope specificity). […] Binding of the antibodies was detected using a secondary fluorochrome conjugated anti-human IgG F(ab′)₂ antibody and samples analyzed on a Fortessa cytometer (BD Biosciences).

Binder	EC50
Abcs35 (antibody, human IgG1, kappa, fully human IgG1; VH of Ab96 with VL of Ab123) heavy: EVQLVQSGAEVKKPGASVKVSCKASGYTFTGYYMHWVRQAPGQGLEWMGWINPKNGDTEFPQKFQGRVTMTRDTSITTAYMDLSRLRSDDTAVYYCARESGDDAFDIWGQGTMVTVSSASTKGPSVFPLAPSSKSTSGGTAALGCLVKDYFPEPVTVSWNSGALTSGVHTFPAVLQSSGLYSLSSVVTVPSSSLGTQTYICNVNHKPSNTKVDKKVEPKSCDKTHTCPPCPAPEAAGAPSVFLFPPKPKDTLMISRTPEVTCVVVDVSHEDPEVKFNWYVDGVEVHNAKTKPREEQYNSTYRVVSVLTVLHQDWLNGKEYKCKVSNKALPAPIEKTISKAKGQPREPQVYTLPPSREEMTKNQVSLTCLVKGFYPSDIAVEWESNGQPENNYKTTPPVLDSDGSFFLYSKLTVDKSRWQQGNVFSCSVMHEALHNHYTQKSLSLSPGK light: DIVMTQSPSSLSASVGDRVTITCRASQSISSYLNWYQQKPGKAPKLLIYAASSLQSGVPSRFSGSGSGTDFTLTISSLQPEDFATYYCQQSVGLFFGGGTKVEIKRTVAAPSVFIFPPSDEQLKSGTASVVCLLNNFYPREAKVQWKVDNALQSGNSQESVTEQDSKDSTYSLSSTLTLSKADYEKHKVYACEVTHQGLSSPVTKSFNRGEC	0.026 nM
Abcs35-J (antibody, human IgG1, kappa, germlined variant of Abcs35; also called ABCS-J) heavy: EVQLVQSGAEVKKPGASVKVSCKASGYTFTGYYMHWVRQAPGQGLEWMGWINPKNGDTEFPQKFQGRVTMTRDTSITTAYMELSRLRSDDTAVYYCARESGDDAFDIWGQGTMVTVSSASTKGPSVFPLAPSSKSTSGGTAALGCLVKDYFPEPVTVSWNSGALTSGVHTFPAVLQSSGLYSLSSVVTVPSSSLGTQTYICNVNHKPSNTKVDKKVEPKSCDKTHTCPPCPAPEAAGAPSVFLFPPKPKDTLMISRTPEVTCVVVDVSHEDPEVKFNWYVDGVEVHNAKTKPREEQYNSTYRVVSVLTVLHQDWLNGKEYKCKVSNKALPAPIEKTISKAKGQPREPQVYTLPPSREEMTKNQVSLTCLVKGFYPSDIAVEWESNGQPENNYKTTPPVLDSDGSFFLYSKLTVDKSRWQQGNVFSCSVMHEALHNHYTQKSLSLSPGK light: not shown	0.026 nM
